Reference: article PMC12013499

Experiments:
Assay in all cases: EMSA
Settings in all cases: EMSA: 0.5 pmol 32P-tRNA, 0-4 uM enzyme, 20 C, 10 min, 18.5% glycerol added, 5% native PAGE; buffer and pH not given (as in cited refs); n = 3
AsuCCA (Ascaris suum) = test system: T1, AsuCCA (Ascaris suum)
T1 sequence: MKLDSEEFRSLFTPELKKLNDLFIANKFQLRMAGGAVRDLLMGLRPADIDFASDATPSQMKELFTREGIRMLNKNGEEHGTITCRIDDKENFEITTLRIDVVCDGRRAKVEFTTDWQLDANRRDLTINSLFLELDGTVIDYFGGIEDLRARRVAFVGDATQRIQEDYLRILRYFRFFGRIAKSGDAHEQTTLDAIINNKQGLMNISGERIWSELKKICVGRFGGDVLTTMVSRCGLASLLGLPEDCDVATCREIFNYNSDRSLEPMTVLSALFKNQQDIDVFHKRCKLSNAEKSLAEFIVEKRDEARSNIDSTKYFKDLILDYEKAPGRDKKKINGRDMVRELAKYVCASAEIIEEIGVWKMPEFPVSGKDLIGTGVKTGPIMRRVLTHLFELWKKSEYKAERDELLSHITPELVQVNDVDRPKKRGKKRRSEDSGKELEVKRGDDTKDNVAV

[1] = test system: T2, AsuCCA-Hsaβ (Ascaris suum / Homo sapiens chimera)
T2 sequence: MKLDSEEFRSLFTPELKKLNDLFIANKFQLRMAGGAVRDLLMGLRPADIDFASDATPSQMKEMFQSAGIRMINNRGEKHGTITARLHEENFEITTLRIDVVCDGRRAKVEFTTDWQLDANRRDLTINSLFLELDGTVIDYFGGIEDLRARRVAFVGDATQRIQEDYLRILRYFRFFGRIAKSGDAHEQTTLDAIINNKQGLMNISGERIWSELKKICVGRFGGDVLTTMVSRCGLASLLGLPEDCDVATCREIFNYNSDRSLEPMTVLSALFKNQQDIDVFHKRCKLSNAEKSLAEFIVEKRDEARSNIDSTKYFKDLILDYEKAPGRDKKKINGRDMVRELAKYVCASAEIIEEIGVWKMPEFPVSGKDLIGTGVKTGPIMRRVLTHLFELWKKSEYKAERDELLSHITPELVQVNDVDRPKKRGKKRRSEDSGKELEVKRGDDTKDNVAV

[2] = test system: T3, RcuCCA (Romanomermis culicivorax)
T3 sequence: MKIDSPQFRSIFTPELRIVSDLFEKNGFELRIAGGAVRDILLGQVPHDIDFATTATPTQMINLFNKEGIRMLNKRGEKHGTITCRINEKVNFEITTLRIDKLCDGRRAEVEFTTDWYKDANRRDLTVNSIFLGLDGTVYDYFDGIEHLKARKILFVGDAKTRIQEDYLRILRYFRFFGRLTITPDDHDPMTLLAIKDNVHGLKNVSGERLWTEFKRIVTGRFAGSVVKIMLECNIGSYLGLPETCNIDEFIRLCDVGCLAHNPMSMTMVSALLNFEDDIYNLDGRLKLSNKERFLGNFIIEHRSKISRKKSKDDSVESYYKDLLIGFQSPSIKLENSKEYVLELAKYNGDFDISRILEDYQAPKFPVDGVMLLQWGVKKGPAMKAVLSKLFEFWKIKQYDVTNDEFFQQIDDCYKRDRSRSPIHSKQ

[3] = test system: T4, HsaCCA-AsuC40 (Homo sapiens / Ascaris suum chimera)
T4 sequence: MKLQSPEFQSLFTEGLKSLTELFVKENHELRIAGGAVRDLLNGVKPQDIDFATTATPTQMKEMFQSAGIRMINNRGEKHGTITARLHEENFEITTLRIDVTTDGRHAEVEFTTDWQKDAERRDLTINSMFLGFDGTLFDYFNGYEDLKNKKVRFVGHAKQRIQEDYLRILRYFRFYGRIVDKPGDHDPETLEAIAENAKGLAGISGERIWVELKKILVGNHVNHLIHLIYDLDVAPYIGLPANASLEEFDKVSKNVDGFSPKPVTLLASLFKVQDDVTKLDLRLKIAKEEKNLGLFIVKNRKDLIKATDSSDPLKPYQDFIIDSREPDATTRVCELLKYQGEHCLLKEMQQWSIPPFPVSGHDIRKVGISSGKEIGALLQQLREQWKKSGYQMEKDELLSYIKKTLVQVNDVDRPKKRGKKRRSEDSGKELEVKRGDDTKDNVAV

[4] = test system: T5, AsuCCA ΔC40 delC-terminal 40 residues (Ascaris suum)
T5 sequence: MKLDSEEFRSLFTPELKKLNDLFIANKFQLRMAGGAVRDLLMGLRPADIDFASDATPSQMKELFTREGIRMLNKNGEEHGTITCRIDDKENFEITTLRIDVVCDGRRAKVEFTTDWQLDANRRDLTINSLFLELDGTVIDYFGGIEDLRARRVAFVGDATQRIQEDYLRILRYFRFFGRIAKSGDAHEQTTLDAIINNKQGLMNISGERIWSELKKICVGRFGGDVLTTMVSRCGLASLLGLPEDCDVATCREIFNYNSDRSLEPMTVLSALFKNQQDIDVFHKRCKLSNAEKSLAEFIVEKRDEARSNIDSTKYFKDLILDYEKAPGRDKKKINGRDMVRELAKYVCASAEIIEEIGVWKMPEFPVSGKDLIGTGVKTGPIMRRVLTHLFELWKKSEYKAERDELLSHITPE

Substance	Kd (AsuCCA (Ascaris suum)) [nM]	Kd [1] [nM]	Kd [2] [nM]	Kd [3] [nM]	Kd [4] [nM]
Rcu mt-tRNAIle (armless)	1100	300	1400	600	–
Sce tRNAPhe (canonical)	500	300	1600	700	1700
